For assay [1], the target named is T1, alpha-synuclein fibrils (UniProt P37840 1-140). In words: SPR, captured bAb. As for the experimental part: (§1) Any non-covalently bound antibodies were removed by three successive regenerations of 10 mM Glycine pH 1.7 (GE Healthcare, 28-9950-84). Immobilization levels were evaluated following ethanolamine capping (Bound) and finally following regeneration (Final). Non-covalent immobilization of alpha-synuclein biparatopic antibodies on flow cell 2 of channels 1-8 was performed at a final concentration of 5 μg/mL, diluted in 10 mM sodium acetate pH 5.5 (GE Healthcare, BR-1003-52). Non-covalent immobilization of an isotype control antibody on flow cell 1 of channels 1-8 was performed at a final concentration of 5 μg/mL, diluted in 10 mM sodium acetate pH 5.5 (GE Healthcare, BR-1003-52).
(§2) Binding affinity of alpha-synuclein biparatopic antibodies to monomeric or fibrillar alpha-synuclein species was performed using a single-cycle kinetics method. The instrument was primed with 1×HBS-P+ buffer (10× stock from GE Healthcare, BR-1003-52 diluted in Milli-Q water). Injections of monomeric alpha-synuclein (Boston Biochem, SP-485), increasing in concentration from 0.62-50 nM prepared from serial 2-fold dilutions, were performed with contact times of 300 sec/injection at a flow rate of 30 μL/min. A dissociation phase of 900 sec followed the final 50 nM injection. Regeneration of the sensor to the goat anti-human antibody layer was achieved using 3 regenerations of 10 mM Glycine pH 1.7. […] Regeneration of the sensor to the goat anti-mouse antibody layer was achieved using 3 regenerations of 10 mM Glycine pH 1.7. Results obtained from single-cycle kinetics were evaluated by Biacore 8K evaluation software with 1:1 binding homogenous Langmuir model with a preceeding buffer injection as a blank subtraction. The following kinetic parameters were obtained: on-rate (ka), off-rate (kd), affinity constant (KD, ratio of kd by ka), maximum response (Rmax), and goodness of fit (Chi2).
(§3) Kinetic constants were determined from 1:1 homogenous binding models for all cases.
A general note: Surface plasmon resonance follows binding to a sensor surface in real time, without labels.

For assay [2], the target named is T2, monomeric alpha-synuclein (UniProt P37840 1-140). In words: SPR, captured bAb. As for the experimental part: as §1, §2, §3
Assay [3] concerns the target T1, alpha-synuclein fibrils. In words: SPR, captured bAb; head says nM, kd/ka gives M. As for the experimental part: as §1, §2, §3
In assay [4] the target is T2, monomeric alpha-synuclein. In words: SPR, captured bAb; head says nM, kd/ka gives M. As for the experimental part: as §1, §2, §3
In another assay the target is T3, 127-140aa.
T3 peptide: {Biotin-Ahx}-MPSEEGYQDYEPEA
In words: indirect ELISA on biotinylated 15-mer peptide, supernatant 1/100. As to the method:
(§4) Serum-free supernatants were harvested from stable hybridomas. The supernatants containing antibodies of interest were then screened by an indirect ELISA assay to determine epitopes. Epitopes were first determined using a library of 15-mer peptides covering the entire sequence of human alpha-synuclein protein, spanning amino acids (aa) 1-140 with 9aa offset and […] overlap. […] Briefly, streptavidin-coated ELISA plates were blocked overnight at 4° C. […] Plates were washed with PBS/0.05% Tween®20 and then incubated with the hybridoma supernatants at 1/100 dilution for 1 hour at 25° C.

The target of a further assay is T4, 1-15aa.
T4 construct: also called alpha-synuclein peptide 1-15
T4 peptide: {Biotin-Ahx}-MDVFMKGLSKAKEGV
In words: indirect ELISA on biotinylated 15-mer peptide. As to the method:
as §4

Another assay concerns the target T5, 82-96aa.
T5 construct: also called alpha-synuclein peptide 82-96
T5 peptide: {Biotin-Ahx}-VEGAGSIAAATGFVK
In words: indirect ELISA on biotinylated 15-mer peptide. As to the method: as §4
A general note: An ELISA detects its analyte on a solid surface through an enzyme-linked reagent.

A further assay concerns the target T6, 46-60aa.
T6 construct: also called alpha-synuclein peptide 46-60
T6 peptide: {Biotin-Ahx}-EGVVHGVATVAEKTK
The experiment in a line: indirect ELISA on biotinylated 15-mer peptide. As to the method: as §4

In a further assay the target is T7, 118-132aa.
T7 peptide: {Biotin-Ahx}-VDPDNEAYEMPSEEG
In words: indirect ELISA on biotinylated 15-mer peptide. As for the experimental part:
as §4

A further assay addresses T8, 1-14aa.
T8 construct: also called alpha-synuclein peptide 1-14
T8 peptide: MDVFMKGLSKAKEG-biotin
The experiment in a line: indirect ELISA on biotinylated 15-mer peptide. As for the experimental part:
as §4

A further assay addresses T9, 10-24aa.
T9 construct: also called alpha-synuclein peptide 10-24
T9 peptide: {Biotin-Ahx}-KAKEGVVAAAEKTKQ
In words: indirect ELISA on biotinylated 15-mer peptide. As to the method:
as §4

A further assay addresses T10, 91-105aa.
T10 peptide: {Biotin-Ahx}-ATGFVKKDQLGKNEE
The experiment in a line: indirect ELISA on biotinylated 15-mer peptide. As to the method:
as §4

Where no end group is shown, it is not given here. The star is where a group is joined. Biotin = O=C1N[C@H]2[C@H](CS[C@H]2CCCCC(=O)*)N1; Ahx = NCCCCCC(=O)O

B1: ACI-27D8_4317A4 (bispecific antibody, V domains shown)
VH 1: EVQLVESGGGLVQPKGSLKLSCAASGFTFNTYAMNWVRQAPGKGLEWVARIRSKSNNFATYYADSVKDRFTISRDESESMLYLQMNNLKAEDTAMYYCVRSFDYWGQGTTLTVSS
VL 1: DIKMTQSPSSMYASLGERVTITCKASQDINSYLSWFQQKPGKSPKTLIYRAKRLVDGVPSRFSGSGSGQDYSLTISSLEYEDMGIYYCLQYDEFPFTFGSGTKLEIK
VH 2: EVQLQQSGAELVRPGASVKLSCTASGFNIKDDYMHWVKQRPEQGLEWIGWIDPENGDTEYASKFQGKATMTADTSSNTAYLQLSSLTSEDTAVYYCKTWGTTQALFPYWGQGTLVTVSA
VL 2: DIVMTQSQKFMYTSVGDRVSITCKASQNVGNAVGWYQQKAGQSPKLLIHSASNRYTGVPDRFTGTGSGTDFTLTINNMQSEDLADYFCQQYRSYPLTFGAGTKLELK
notes: biparatopic; Arm A ACI-8033-27D8-Ab1, Arm B ACI-7088-4317A4-Ab1; engineered constant domains not specified
What is called koff is a measure of how fast the partners let go of each other. Read a low koff as slow dissociation. The kon is the second-order rate constant of association. A high value points to fast association. Broadly, the Kd is the equilibrium constant for the complex coming apart. Low values mean higher affinity, high ones lower affinity. B1: the dissociation rate constant (koff) with alpha-synuclein fibrils [1] was 5.8e-05 s⁻¹; in assay [2] it was 0.0283 s⁻¹. Also, the results for the kon (with alpha-synuclein fibrils [1]; in [2]) were 65400 M⁻¹ s⁻¹ and 7.94e+06 M⁻¹ s⁻¹, respectively. In addition, the dissociation constant Kd is 0.887 nM with alpha-synuclein fibrils [3] and 3.57 nM in assay [4].

B2: ACI-27D8_4301D5 (bispecific antibody, V domains shown)
VH 1: EVQLVESGGGLVQPKGSLKLSCAASGFTFNTYAMNWVRQAPGKGLEWVARIRSKSNNFATYYADSVKDRFTISRDESESMLYLQMNNLKAEDTAMYYCVRSFDYWGQGTTLTVSS
VL 1: DIKMTQSPSSMYASLGERVTITCKASQDINSYLSWFQQKPGKSPKTLIYRAKRLVDGVPSRFSGSGSGQDYSLTISSLEYEDMGIYYCLQYDEFPFTFGSGTKLEIK
VH 2: QVQLQQSGPELVRPGASVKISCKASGYRFTSYYIHWVKQRPGQGLEWIGWIYPGSDNTKHNDKFKGKATLTADTSSSTAYMQLSSLTSEDSAVYFCARDYDVGFGYWGQGTLVTVSS
VL 2: not shown
notes: biparatopic; Arm A ACI-8033-27D8-Ab1, Arm B ACI-7088-4301D5-Ab2; engineered constant domains not specified
For B2, the dissociation rate constant (koff) with alpha-synuclein fibrils [1] turned out to be 0.000219 s⁻¹; in assay [2], 0.147 s⁻¹. The association rate constant (kon) worked out at 13100 M⁻¹ s⁻¹ with alpha-synuclein fibrils [1] and 1.37e+06 M⁻¹ s⁻¹ in assay [2]. In addition, the Kd came out at 16.7 nM with alpha-synuclein fibrils [3] and 107 nM in assay [4].

B3: ACI-1101C8_4317A4 (bispecific antibody, V domains shown)
VH 1: EVQLVESGGGLVQPKGSLKLSCAASGFSFNIYAMNWVRQAPGKGLEWVARIRSKSNNYATYYADSVKDRFTISRADSESMLYLQMNNLKTEDTAMYYCVRVGLRFYAMDYWGQGTSVTVSS
VL 1: DVLMTQTPLSLPVSLGDQASISCRSSQSIVHSNGNTYLEWYLQKPGQSPKLLIYKVSNRFSGVPDRFSGSGSGTDFTLKISRVEAEDLGVYYCFQGSQGPLTFGAGTKLELK
VH 2: EVQLQQSGAELVRPGASVKLSCTASGFNIKDDYMHWVKQRPEQGLEWIGWIDPENGDTEYASKFQGKATMTADTSSNTAYLQLSSLTSEDTAVYYCKTWGTTQALFPYWGQGTLVTVSA
VL 2: DIVMTQSQKFMYTSVGDRVSITCKASQNVGNAVGWYQQKAGQSPKLLIHSASNRYTGVPDRFTGTGSGTDFTLTINNMQSEDLADYFCQQYRSYPLTFGAGTKLELK
notes: biparatopic; Arm A ACI-7067-1101C8-Ab2, Arm B ACI-7088-4317A4-Ab1; engineered constant domains not specified
For the molecule B3, the koff in the assay with alpha-synuclein fibrils [1] came to 3e-05 s⁻¹; in assay [2] it was 0.00158 s⁻¹. Besides, the on-rate (kon) with alpha-synuclein fibrils [1] stood at 69300 M⁻¹ s⁻¹; in [2], 2.35e+06 M⁻¹ s⁻¹. The dissociation constant Kd came out at 0.433 nM with alpha-synuclein fibrils [3] and 0.671 nM in [4].

B4: ACI-7079-2501D10-Ab1 (antibody, V domains shown)
VH: EVQLVESGGGLVQPKGSLKVSCAASGFTFKTYAMHWVRQAPGKGLEWVARIRSENSNFAKYYADSVKDRFTISRDDSQSMLYLQMNNLKTEDTAMYYCVRGYNGSSLDYWGQGTTLTVSS
VL: QIVLTQSPAIMSAFPGERVTMTCSASSSVNYMHWYQQKSGTSPKRWIYDTSKLASGVPARFSGGGSGTSYSLTISNMEAEDAATYYCQQWRSNPPTFGGGTKLEIK
notes: mouse hybridoma mAb; VH/VL only; also called 2501D10C3
On to B4, for which the binding result with 127-140aa is reported as “binds”; in the assay with 1-15aa, “no binding (tested: supernatant 1/100)”; in the assay with 82-96aa, “no binding (tested: supernatant 1/100)”; with 46-60aa, “no binding (tested: supernatant 1/100)”; with 118-132aa, “no binding (tested: supernatant 1/100)”; with 1-14aa, “no binding (tested: supernatant 1/100)”. In addition, the binding result with 10-24aa and with 91-105aa was “no binding (tested: supernatant 1/100)” each time.

B5: ACI-7079-2507B3-Ab1 (antibody, V domains shown)
VH: EVQLVESGGGLVQPKGSLKVSCAASGFTFKTYAMHWVRQAPGKGLEWVARIRSENSNFAKYYADSVKDRFTISRDDSQSMLYLQMHTLKTEDTAIYYCVRGYNGSSLDYWGQGTTLTVSS
VL: QIVLTQSPAIMSAFPGERVTMTCSASSSVNYMHWYQQKSGTSPKRWIYDTSKLASGVPARFSGGGSGTSYSLTISNMEAEDAATYYCQQWRSNPPTFGGGTKLEIK
notes: mouse hybridoma mAb; VH/VL only; also called 2507B3G8
For B5, the binding result in the assay with 127-140aa is recorded as “binds”; in the assay with 1-15aa, “no binding (tested: supernatant 1/100)”; in the assay with 82-96aa, “no binding (tested: supernatant 1/100)”; with 46-60aa, “no binding (tested: supernatant 1/100)”; with 118-132aa, “no binding (tested: supernatant 1/100)”; in the assay with 1-14aa, “no binding (tested: supernatant 1/100)”. Also, the binding result with 10-24aa and with 91-105aa was “no binding (tested: supernatant 1/100)” in each case.

B6: ACI-7079-2602G4-Ab4 (antibody, V domains shown)
VH: EVQLVESGGGLVQPKGSLKLSCAASGFTFKTYAMHWVRQAPGKGLEWVARIRSKGSDYATYYADSVKDRFTISRDDSQSMLYLQMNNLKTEDTAMYFCVRGGADSWFAYWGQGTLVTVST
VL: QIVLTQSPAIMSASPGERITMTCTASSSVSYMHWYQQKSGTSPKRWIYDTSKLASGVPARFSGSGSGASYTLTISSMEAEDAATYYCQQWNRNPPTFGGGTQLAIK
notes: mouse hybridoma mAb; VH/VL only; also called 2602G4H1
On to B6, for which the binding result in the assay with 127-140aa is on record as “binds”; with 1-15aa it was “no binding (tested: supernatant 1/100)”; in the assay with 82-96aa it was “no binding (tested: supernatant 1/100)”; with 46-60aa, “no binding (tested: supernatant 1/100)”; with 118-132aa, “no binding (tested: supernatant 1/100)”; with 1-14aa, “no binding (tested: supernatant 1/100)”. For the same molecule, the binding result with 10-24aa and with 91-105aa was “no binding (tested: supernatant 1/100)” throughout.

B7: ACI-1101C8_4301E12 (bispecific antibody, V domains shown)
VH 1: EVQLVESGGGLVQPKGSLKLSCAASGFSFNIYAMNWVRQAPGKGLEWVARIRSKSNNYATYYADSVKDRFTISRADSESMLYLQMNNLKTEDTAMYYCVRVGLRFYAMDYWGQGTSVTVSS
VL 1: DVLMTQTPLSLPVSLGDQASISCRSSQSIVHSNGNTYLEWYLQKPGQSPKLLIYKVSNRFSGVPDRFSGSGSGTDFTLKISRVEAEDLGVYYCFQGSQGPLTFGAGTKLELK
VH 2: DVQLQESGPGLVKPSQSLSLTCSVTGYSITSGYYWNWIRQFPGNKLEWMGYISDDGSKNYNPSLKNRISITRDTSKNQLFMKLNSVTTEDTATYYCARGDSRLGQGTLVTVSA
VL 2: not shown
notes: biparatopic; Arm A ACI-7067-1101C8-Ab2, Arm B ACI-7088-4301E12-Ab2; engineered constant domains not specified
For B7, the koff was determined as 9.65e-07 s⁻¹ in the assay with alpha-synuclein fibrils [1] and 0.000444 s⁻¹ in assay [2]. Also, the on-rate (kon) turned out to be 44900 M⁻¹ s⁻¹ in the assay with alpha-synuclein fibrils [1] and 224000 M⁻¹ s⁻¹ in assay [2]. In addition, the values for the dissociation constant (Kd) (with alpha-synuclein fibrils [3]; in assay [4]) were 0.0215 nM and 1.98 nM, respectively.

For the origin of these results see patent US20250340623A1 (AC IMMUNE, published 2025).
